From PMC7954794, “Protein context shapes the specificity of SH3 domain-mediated interactions in vivo” (Nature Communications, 2021) come the findings set out here.

B1: ABP1 Y9Y (protein, UniProt P15891 2-592, looked up)
Actin-binding protein: ALEPIDYTTHSREIDAEYLKIVRGSDPDTTWLIISPNAKKEYEPESTGSSFHDFLQLFDETKVQYGLARVSPPGSDVEKIIIIGWCPDSAPLKTRASFAANFAAVANNLFKGYHVQVTARDEDDLDENELLMKISNAAGARYSIQTSSKQQGKASTPPVKKSFTPSKSPAPVSKKEPVKTPSPAPAAKISSRVNDNNDDDDWNEPELKERDFDQAPLKPNQSSYKPIGKIDLQKVIAEEKAKEDPRLVQKPTAAGSKIDPSSDIANLKNESKLKRDSEFNSFLGTTKPPSMTESSLKNDDDKVIKGFRNEKSPAQLWAERKAKQNSGNAETKAEAPKPEVPEDEPEGEPDVKDLKSKFEGLAASEKEEEEMENKFAPPPKKSEPTIISPKPFSKPQEPVKAEEAEQPKTDYKKIGNPLPGMHIEADNEEEPEENDDDWDDDEDEAAQPPLPSRNVASGAPVQKEEPEQEEIAPSLPSRNSIPAPKQEEAPEQAPEEEIEEEAEEAAPQLPSRSSAAPPPPPRRATPEKKPKENPWATAEYDYDAAEDNELTFVENDKIINIEFVDDDWWLGELEKDGSKGLFPSNYVSLGN
modifications: synonymous codon change Y9Y
B2: ABP1 D10D (protein, UniProt P15891 2-592, looked up)
Actin-binding protein: B1 Actin-binding protein
modifications: synonymous D10D codon change
B3: ABP1 Y7Y (protein, UniProt P15891 2-592, looked up)
Actin-binding protein: B1 Actin-binding protein
modifications: synonymous codon change Y7Y in SH3
B4: ABP1 V54V (protein, UniProt P15891 2-592, looked up)
Actin-binding protein: B1 Actin-binding protein
modifications: synonymous V54V
B5: ABP1 S55S (protein, UniProt P15891 2-592, looked up)
Actin-binding protein: B1 Actin-binding protein
modifications: synonymous codon change S55S
B6: ABP1 N58N (protein, UniProt P15891 2-592, looked up)
Actin-binding protein: B1 Actin-binding protein
modifications: synonymous codon change N58N
B7: ABP1 G57G (protein, UniProt P15891 2-592, looked up)
Actin-binding protein: B1 Actin-binding protein
modifications: synonymous G57G codon change in SH3 domain
B8: ABP1 E13E (protein, UniProt P15891 2-592, looked up)
Actin-binding protein: B1 Actin-binding protein
modifications: synonymous codon change E13E
B9: ABP1 N15N (protein, UniProt P15891 2-592, looked up)
Actin-binding protein: B1 Actin-binding protein
modifications: synonymous codon change N15N
B10: ABP1 D14D (protein, UniProt P15891 2-592, looked up)
Actin-binding protein: B1 Actin-binding protein
modifications: synonymous codon change D14D
B11: ABP1 L17L (protein, UniProt P15891 2-592, looked up)
Actin-binding protein: B1 Actin-binding protein
modifications: synonymous codon change L17L in SH3
B12: ABP1 E16E (protein, UniProt P15891 2-592, looked up)
Actin-binding protein: B1 Actin-binding protein
modifications: synonymous codon change E16E

One experiment deals with Hua2 and Lsb3. Put plainly: Classification of Abp1 SH3 mutations by effect on Hua2 and Lsb3 DMS scores (quadrant). It is filed as cell-based, Saccharomyces cerevisiae. To be noted: class of mutation by Hua2 and Lsb3 DMS scores (Dest. both, Dest. Hua2, Dest. Lsb3, Neutral).
With B1, the quadrant result is “Neutral”.

Regarding B2, the quadrant result is listed as “Neutral”.

Take B3: the quadrant entry is reported as “Neutral”.

In the next experiment the test system is Hua2 and Lsb3 (Abp1-Hua2 and Abp1-Lsb3 PPIs). Put plainly: Deep mutational scanning of Abp1 SH3, quadrant classification from Hua2 and Lsb3 DMS scores. The class given is cell-based, Saccharomyces cerevisiae. To be noted: class from DMS scores for Hua2 and Lsb3.
Turning to B4, the quadrant entry is “Neutral”.

In the case of B5, the quadrant result is “Neutral”.

B6: the quadrant entry is “Neutral”.

Take B7: the quadrant result is “Neutral”.

For the next experiment, the system named is Hua2 and Lsb3. Nature of the experiment: Quadrant classification of Abp1 SH3 variants from DMS scores (Abp1-Hua2 and Abp1-Lsb3 DHFR-PCA). It is filed as cell-based, Saccharomyces cerevisiae. Particulars: class by effect on Hua2 and Lsb3 PPIs (Dest. both / Dest. Hua2 / Dest. Lsb3 / Neutral).
On to B8, for which the quadrant entry is “Neutral”.

Turning to B9, the quadrant result is recorded as “Neutral”.

With B10, the quadrant entry is reported as “Neutral”.

As for B11, the quadrant entry is on record as “Neutral”.

With B12, the quadrant entry is recorded as “Neutral”.

The test system of a further experiment is Lsb3. Nature of the experiment: Deep mutational scanning of Abp1 SH3, Abp1-Lsb3 DHFR-PCA (DMS score). To be noted: Abp1-Lsb3; frequencies scaled to the synonymous mutation distribution. The class given is cell-based, Saccharomyces cerevisiae. The protocol:
Single site mutation libraries were generated by a PCR-based saturation mutagenesis method[50] as described below. The mutagenesis was carried out on the pUC19 plasmid containing the SH3 domain sequence of ABP1 flanked by its homology arms subsequently used in the CRISPR mediated genomic re-integration. We used oligos containing degenerate nucleotides (NNN) to carry out the mutagenesis at each codon of the domain sequence. In the first step of the two-step PCR procedure (short PCR step), an amplicon was generated with an oligo containing the degenerate codon which is positioned within the domain sequence, and another oligo lying outside Abp1 sequence in the plasmid. Short PCR step was carried out with the following settings: 5 min at 95 °C, 35 cycles: 20 s at 98 °C, 15 s at 60 °C, 30 s at 72 °C, and a final extension of 1 min at 72 °C. The amplicon generated in this step was used as a mega primer in the second step (long PCR step) to amplify the whole plasmid. Long PCR step was carried out with the following settings: 5 min at 95 °C, 22 cycles: 20 s at 98 °C, 15 s at 68 °C, 3 min 30 s at 72 °C, and a final extension of 5 min at 72 °C. The long PCR product was digested for 2 h at 37 °C with DpnI. The digestion product was then transformed into E. coli MC1061 competent cells. In order to obtain most of the 64 possible codons, we recovered ~1000 colonies from each plate to retrieve the plasmid single mutant libraries. Saturation mutagenesis was carried out in a codon-position-wise manner. Mutants at each position were stored separately. Library quality control was assessed by amplifying the purified plasmid DNA preparations by PCR followed by Illumina sequencing as described below. The genomic insertion of the mutant libraries (one library per amino acid position) was performed by targeting the stuffer sequence in the ABP1 SH3-deleted strain as described in the strain construction section. ABP1 SH3-deleted yeast competent cells were co-transformed with pCAS containing the stuffer-specific gRNA and PCR amplified ABP1 SH3 single position mutated libraries from the pUC19 preparations. As for the library generation, ~1000 colonies from each plate were retrieved. Glycerol stocks of yeast cells were kept for each position (58 different stocks corresponding to the 58 amino acid positions of Abp1 SH3). The stocks were also validated by Illumina sequencing (see below).
Liquid DHFR-PCA experiments were performed following the generation of the ABP1 SH3 single position mutated yeast strains and were performed in biological independent duplicates. An overnight culture was started in YPD + NAT by adding the same number of cells from each yeast mutant strain (master pool). Then, the master pool and Hua2-DHFR F[3] or Lsb3-DHFR F[3] preys strains were mixed in YPD (2:1) for mating and incubated for 8 h at 30 °C. Diploid cells were selected the first time by transferring the mixture in a YPD + NAT + HPH (OD 0.5) culture for 16 h at 30 °C. The next day, the first diploid selection was transferred in SC complete pH 6.0 + NAT + HPH at 0.5 OD and the culture was grown for 24 h at 30 °C. The validation of the yeast mutant libraries was done the next day with a fraction of the diploid cells (first DHFR-PCA experiment time point without PCA selection, reference condition S2) by amplifying ABP1 SH3 genomic sequence followed by Illumina sequencing as described in the section below. Following the selection, diploid cells OD was read using a TECAN Infinite F200 Pro, and dilutions to 0.1 OD in PCA selection media without agar in a 50 mL tube was done. Tubes were incubated at 30 °C for 72 h (second-time point of the DHFR-PCA experiment, first PCA selection). A fraction of the cells (5U OD) was collected for Illumina sequencing. The cells from the first PCA step were grown for a second PCA selection step using the same procedures. […]
For B1, the “lsb3sc (DMS score)” value is reported as -0.3936.

As to B2, the “lsb3sc (DMS score)” value amounted to 0.006531.

Take B3: the “lsb3sc (DMS score)” value is -0.04736.

The experiment is the same for the next values; noted with them: Abp1-Lsb3 DHFR-PCA, DMS score.
On to B4, for which the “lsb3sc (frequencies scaled to the synonymous mutation distribution, DMS score)” value is reported as -0.8004.

Consider B5, for which the “lsb3sc (frequencies scaled to the synonymous mutation distribution, DMS score)” value is given as 0.2461.

B6: the “lsb3sc (frequencies scaled to the synonymous mutation distribution, DMS score)” value is -0.6649.

With B7, the “lsb3sc (frequencies scaled to the synonymous mutation distribution, DMS score)” value is -0.3559.

The same experiment, now with this note: Abp1-Lsb3 DHFR-PCA, MTX2.
With B4, the “LSB3_MTX2 (frequencies normalized to the reference condition)” value is 0.6999.

Consider B5, for which the “LSB3_MTX2 (frequencies normalized to the reference condition)” value is on record as 1.746.

On to B6, for which the “LSB3_MTX2 (frequencies normalized to the reference condition)” value stood at 0.8354.

Turning to B7, the “LSB3_MTX2 (frequencies normalized to the reference condition)” value is on record as 1.1444.

The same experiment, now with this note: Abp1 SH3 DMS; Abp1-Lsb3 DHFR-PCA, MTX2; frequencies normalized to the reference condition.
Take B1: the “LSB3_MTX2 (frequency normalized to the reference condition)” value was determined as 1.1067.

Turning to B2, the “LSB3_MTX2 (frequency normalized to the reference condition)” value came to 1.507.

Consider B3, for which the “LSB3_MTX2 (frequency normalized to the reference condition)” value is listed as 1.453.

The same experiment, now with this note: Frequencies scaled to the synonymous mutation distribution (DMS score); Lsb3.
For the molecule B8, the “lsb3sc (DMS score)” value is recorded as -0.3311.

Turning to B9, the “lsb3sc (DMS score)” value is 0.1386.

On to B10, for which the “lsb3sc (DMS score)” value is given as -0.6602.

On to B11, for which the “lsb3sc (DMS score)” value is reported as -0.4377.

Take B12: the “lsb3sc (DMS score)” value is reported as 0.1832.

The experiment is the same for the next values; noted with them: frequencies normalized to the reference condition; Abp1-Lsb3, MTX2.
Turning to B8, the LSB3_MTX2 was found to be 1.169.

Turning to B9, the LSB3_MTX2 amounted to 1.639.

In the case of B10, the LSB3_MTX2 is 0.8401.

B11 yielded an LSB3_MTX2 of 1.063.

B12 yielded an LSB3_MTX2 of 1.684.

The next experiment deals with Hua2. Put plainly: Deep mutational scanning of Abp1 SH3, Abp1-Hua2 DHFR-PCA (DMS score). The class given is cell-based, Saccharomyces cerevisiae. To be noted: Abp1-Hua2; frequencies scaled to the synonymous mutation distribution. Summed up: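 Yeast, genomic ABP1 SH3 single-codon mutant pool (58 positions, NNN) × DHFR F[3] prey; diploid selection, then 2 cycles PCA selection medium, 72 h, 30 °C each. Readout: Illumina sequencing of SH3 locus vs. unselected diploid reference (S2). Biological duplicates.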
Regarding B1, the “hua2sc (DMS score)” value is listed as -0.7456.

B2: the “hua2sc (DMS score)” value is -0.2777.

As to B3, the “hua2sc (DMS score)” value amounted to 0.2398.

The experiment is the same for the next values; noted with them: Abp1-Hua2 DHFR-PCA, DMS score.
For B4, the “hua2sc (frequencies scaled to the synonymous mutation distribution, DMS score)” value was -0.1199.

With B5, the “hua2sc (frequencies scaled to the synonymous mutation distribution, DMS score)” value is on record as -0.05585.

As for B6, the “hua2sc (frequencies scaled to the synonymous mutation distribution, DMS score)” value is reported as -0.8159.

Regarding B7, the “hua2sc (frequencies scaled to the synonymous mutation distribution, DMS score)” value is -0.4468.

Still in this experiment, the particulars now being: Abp1-Hua2 DHFR-PCA, MTX2.
In the case of B4, the “HUA2_MTX2 (frequencies normalized to the reference condition)” value is 1.4929.

B5: the “HUA2_MTX2 (frequencies normalized to the reference condition)” value stood at 1.557.

As to B6, the “HUA2_MTX2 (frequencies normalized to the reference condition)” value is reported as 0.7969.

B7: the “HUA2_MTX2 (frequencies normalized to the reference condition)” value came to 1.166.

The experiment is the same for the next values; noted with them: Abp1 SH3 DMS; Abp1-Hua2 DHFR-PCA, MTX2; frequencies normalized to the reference condition.
Consider B1, for which the “HUA2_MTX2 (frequency normalized to the reference condition)” value is on record as 0.8672.

Take B2: the “HUA2_MTX2 (frequency normalized to the reference condition)” value is 1.335.

In the case of B3, the “HUA2_MTX2 (frequency normalized to the reference condition)” value was 1.853.

The same experiment, now with this note: Frequencies scaled to the synonymous mutation distribution (DMS score); Hua2.
Regarding B8, the “hua2sc (DMS score)” value is -0.2784.

In the case of B9, the “hua2sc (DMS score)” value is on record as -0.2193.

Regarding B10, the “hua2sc (DMS score)” value is 0.002961.

Take B11: the “hua2sc (DMS score)” value is -0.5458.

Turning to B12, the “hua2sc (DMS score)” value came out at 0.3666.

The experiment is the same for the next values; noted with them: frequencies normalized to the reference condition; Abp1-Hua2, MTX2.
Regarding B8, the HUA2_MTX2 amounted to 1.334.

The molecule B9 yielded an HUA2_MTX2 of 1.393.

Regarding B10, the HUA2_MTX2 was 1.616.

Take B11: the HUA2_MTX2 worked out at 1.067.

B12: the HUA2_MTX2 is recorded as 1.979.
